Assay results published in the RNAGym collection of RNA variant scans (doi:10.7554/elife.80360).

B1: HDV Ribozyme (parent)
chain: GGCCGGCAUGGUCCCAGCCUCCUCGCUGGCGCCGGCUGGGCAACAUUCCGAGGGGACCGUCCCCUCGGUAAUGGCGAAUGGGACCCA

Variants of: B1
Experiment: self-cleavage, relative activity (ratio to wild type); higher = more cleavage; co-transcriptional

Row | Variant | self-cleavage
1 | U9A A45G | 0.733
2 | U9A A71U | 0.688
3 | U9A A71G | 0.506
4 | A8U G55U | 0.635
5 | A8U G55A | 0.749
6 | U9C A16C | 0.519
7 | U9C A16U | 1.08
8 | U9A G25U | 0.175
9 | U9A G25A | 0.426
10 | U9A C24G | 0.111
11 | U9A C24A | 0.914
12 | U9A C24U | 0.449
13 | A8U G39A | 0.318
14 | U9C U65G | 1.37
15 | U9C U65A | 1.25
16 | U9C U65C | 1.22
17 | U9C C64U | 0.923
18 | A8U G73U | 0.199
19 | A8U G73A | 0.323
20 | A8U G73C | 0.0831
21 | U9A G81U | 0.332
22 | U9A C21G | 0.0462
23 | U9A C21A | 0.0739
24 | U9C G40A | 0.997

Row | Variant | self-cleavage
25 | U9C G40C | 0.135
26 | U9A C61G | 0.682
27 | U9A C61U | 0.986
28 | U9C C66G | 1.04
29 | U9C A78G | 0.914
30 | U9C A78U | 0.185
31 | U9A C19A | 0.194
32 | U9C C57A | 1.09
33 | U9A G31A | 0.554
34 | U9A G31U | 0.208
35 | U9A G53U | 1.28
36 | U9A G53A | 1.2
37 | A8U G52U | 0.872
38 | A8U G52A | 0.692
39 | U9A G40U | 0.897
40 | U9A G40A | 1.02
41 | A8U G28C | 0.166
42 | A8U G28U | 0.131
43 | U9C G25A | 0.277
44 | U9C G25C | 0.0615
45 | U9C G28U | 0.123
46 | U9C G28C | 0.0573
47 | U9C U47G | 1.42
48 | U9C U47C | 0.969

Row | Variant | self-cleavage
49 | A8U U23G | 0.415
50 | A8U G40U | 0.415
51 | A8U G40C | 0.234
52 | U9C U69C | 0.969
53 | U9C U69A | 1.02
54 | U9C U69G | 1.22
55 | A8U G68C | 0.752
56 | A8U G68U | 0.858
57 | U9C G81A | 0.415
58 | U9C G81U | 0.237
59 | U9G A83G | 0.525
60 | U9G A83U | 0.453
61 | U9G A83C | 0.554
62 | U9C U27C | 0.554
63 | U9C U27A | 0.935
64 | U9A C48U | 0.914
65 | U9A C48A | 1.01
66 | U9A C13A | 0.119
67 | U9A C13U | 1.36
68 | U9A A16C | 0.712
69 | U9A A16G | 1.37
70 | U9A C15U | 1.02
71 | U9A C15G | 0.499
72 | U9C G11C | 0.266

Row | Variant | self-cleavage
73 | U9C G11U | 0.383
74 | U9A U72G | 0.787
75 | U9A U72C | 0.688
76 | U9C A83G | 0.665
77 | U9C A83U | 0.525
78 | A8U U60G | 0.89
79 | A8U U60C | 0.492
80 | U9A C26G | 0.623
81 | U9A C26A | 0.76
82 | U9C A43C | 0.378
83 | U9C A43U | 0.378
84 | A8U G74C | 0.166
85 | U9A U69A | 0.87
86 | U9A U69C | 0.802
87 | A8U U47A | 0.767
88 | U9A U20A | 0.185
89 | U9A U20G | 0.151
90 | U9A U20C | 0.128
91 | U9A G74C | 0.0573
92 | U9A G74U | 0.585
93 | U9C C15U | 0.776
94 | U9C C15A | 0.748
95 | A8U G80A | 0.227
96 | U9C G53U | 1.26

Row | Variant | self-cleavage
97 | U9C G53A | 1.01
98 | U9A G10C | 0.875
99 | U9A G10U | 0.855
100 | U9C G54A | 1.08
101 | A8U U27C | 0.196
102 | A8U U27A | 0.578
103 | U9C G39C | 0.287
104 | A8U U37A | 0.201
105 | A8U U37C | 0.87
106 | U9C A42G | 0.886
107 | U9C A42C | 0.475
108 | U9A G67A | 0.937
109 | U9A G67U | 0.849
110 | U9A A56U | 0.867
111 | U9A G80C | 0.189
112 | U9A G80A | 0.402
113 | A8U U46C | 0.554
114 | A8U U46A | 0.415
115 | U9A G68C | 1.16
116 | U9A G68U | 1.08
117 | U9A G68A | 0.955
118 | U9A U37C | 1.07
119 | U9G A51C | 1.03
120 | U9G A51U | 1.22

Row | Variant | self-cleavage
121 | U9G A51G | 0.95
122 | U9A U46A | 0.743
123 | U9C U20A | 0
124 | U9C U20C | 0
125 | U9A A77U | 0.506
126 | U9A A77C | 0.383
127 | U9A G82A | 0.425
128 | U9A G82U | 0.375
129 | U9C C32A | 0
130 | U9C C32U | 0.862
131 | U9G A42C | 0.453
132 | U9A C49U | 0.831
133 | U9A C14U | 1.11
134 | U9A C14G | 0.604
135 | A8U G81C | 0.115
136 | A8U G81A | 0.148
137 | A8U G53A | 0.665
138 | A8U G53U | 0.867
139 | U9C C22U | 0.727
140 | U9C C22G | 0
141 | U9C C26A | 1.25
142 | U9G A16G | 1.42
143 | U9G A16C | 0.712
144 | U9A G76C | 1.07

Row | Variant | self-cleavage
145 | U9A G76A | 0.955
146 | U9C C84U | 0.415
147 | U9A G28C | 0
148 | U9A G28U | 0.0898
149 | U9A C62G | 0.939
150 | U9A C62A | 1.03
151 | U9C A70C | 0.997
152 | U9A C66A | 0.95
153 | U9A U65A | 1.05
154 | U9A U65G | 1.11
155 | A8U G76C | 0.965
156 | U9A C22A | 0.388
157 | U9A C22U | 0.831
158 | U9G A56U | 1.01
159 | U9C C13A | 0.158
160 | U9C C13G | 0.158
161 | U9C C13U | 0.453
162 | A8U G82U | 0.185
163 | A8U G82C | 0.0923
164 | U9A U12G | 1.06
165 | U9A A42G | 0.361
166 | U9A A42C | 0.252
167 | U9C C36G | 0
